Legend:
Experiment in all cases: control-mAb-coated microbeads on monocyte-derived macrophages (which carry hDCL-1, MMR and DEC-205), confocal microscopy
[1] = target: MMR/CD206 on human monocyte-derived macrophages (human) (UniProt P22897)
[2] = target: human DCL-1 (native, on human leukocytes) (human) (UniProt Q8IX05)
[3] = target: DEC-205 (CD205) on human monocyte-derived macrophages (human) (UniProt O60449)
UniProt O60449, sequence (O60449 28-1722): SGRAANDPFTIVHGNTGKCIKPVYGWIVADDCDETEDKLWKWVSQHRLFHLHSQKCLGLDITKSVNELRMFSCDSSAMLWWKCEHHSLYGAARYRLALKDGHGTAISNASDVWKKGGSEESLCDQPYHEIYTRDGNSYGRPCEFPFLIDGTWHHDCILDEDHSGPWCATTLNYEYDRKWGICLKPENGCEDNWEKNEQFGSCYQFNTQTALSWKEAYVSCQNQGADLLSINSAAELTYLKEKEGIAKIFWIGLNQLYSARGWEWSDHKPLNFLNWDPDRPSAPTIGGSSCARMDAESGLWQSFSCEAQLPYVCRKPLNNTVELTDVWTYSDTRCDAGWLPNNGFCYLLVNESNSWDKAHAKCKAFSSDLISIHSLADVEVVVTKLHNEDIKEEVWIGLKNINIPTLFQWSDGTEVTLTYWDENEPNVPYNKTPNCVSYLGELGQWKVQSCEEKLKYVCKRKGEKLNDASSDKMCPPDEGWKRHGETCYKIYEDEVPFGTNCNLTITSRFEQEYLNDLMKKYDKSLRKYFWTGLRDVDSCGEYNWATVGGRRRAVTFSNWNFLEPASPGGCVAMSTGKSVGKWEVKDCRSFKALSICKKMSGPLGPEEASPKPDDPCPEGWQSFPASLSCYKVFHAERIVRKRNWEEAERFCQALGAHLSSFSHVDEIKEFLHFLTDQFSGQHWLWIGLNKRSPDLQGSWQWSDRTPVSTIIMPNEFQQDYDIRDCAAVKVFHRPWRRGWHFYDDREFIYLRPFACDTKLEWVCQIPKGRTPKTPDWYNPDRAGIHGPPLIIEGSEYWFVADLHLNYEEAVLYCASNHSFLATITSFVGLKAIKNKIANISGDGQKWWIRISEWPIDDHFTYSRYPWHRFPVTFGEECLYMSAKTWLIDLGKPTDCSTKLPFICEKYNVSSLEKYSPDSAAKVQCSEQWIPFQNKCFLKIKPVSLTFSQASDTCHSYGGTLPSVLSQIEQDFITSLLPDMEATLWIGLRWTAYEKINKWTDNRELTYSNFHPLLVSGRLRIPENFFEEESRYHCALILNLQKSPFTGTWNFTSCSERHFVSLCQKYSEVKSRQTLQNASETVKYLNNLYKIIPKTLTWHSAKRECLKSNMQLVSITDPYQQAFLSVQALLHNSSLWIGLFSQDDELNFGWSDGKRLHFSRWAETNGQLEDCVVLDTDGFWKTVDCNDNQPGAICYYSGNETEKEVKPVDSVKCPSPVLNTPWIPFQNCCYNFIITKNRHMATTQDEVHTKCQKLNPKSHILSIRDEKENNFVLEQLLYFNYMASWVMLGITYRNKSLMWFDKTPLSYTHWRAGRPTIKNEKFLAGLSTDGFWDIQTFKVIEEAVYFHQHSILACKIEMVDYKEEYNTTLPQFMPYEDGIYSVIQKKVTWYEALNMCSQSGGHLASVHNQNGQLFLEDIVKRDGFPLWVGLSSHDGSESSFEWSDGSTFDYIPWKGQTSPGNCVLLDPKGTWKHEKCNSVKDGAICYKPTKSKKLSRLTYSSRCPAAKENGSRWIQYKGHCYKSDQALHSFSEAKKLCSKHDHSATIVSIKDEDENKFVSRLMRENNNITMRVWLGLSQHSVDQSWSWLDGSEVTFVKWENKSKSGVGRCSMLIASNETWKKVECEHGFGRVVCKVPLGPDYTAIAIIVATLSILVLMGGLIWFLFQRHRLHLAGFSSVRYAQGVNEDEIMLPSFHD

UniProt P22897, sequence (P22897 19-1456): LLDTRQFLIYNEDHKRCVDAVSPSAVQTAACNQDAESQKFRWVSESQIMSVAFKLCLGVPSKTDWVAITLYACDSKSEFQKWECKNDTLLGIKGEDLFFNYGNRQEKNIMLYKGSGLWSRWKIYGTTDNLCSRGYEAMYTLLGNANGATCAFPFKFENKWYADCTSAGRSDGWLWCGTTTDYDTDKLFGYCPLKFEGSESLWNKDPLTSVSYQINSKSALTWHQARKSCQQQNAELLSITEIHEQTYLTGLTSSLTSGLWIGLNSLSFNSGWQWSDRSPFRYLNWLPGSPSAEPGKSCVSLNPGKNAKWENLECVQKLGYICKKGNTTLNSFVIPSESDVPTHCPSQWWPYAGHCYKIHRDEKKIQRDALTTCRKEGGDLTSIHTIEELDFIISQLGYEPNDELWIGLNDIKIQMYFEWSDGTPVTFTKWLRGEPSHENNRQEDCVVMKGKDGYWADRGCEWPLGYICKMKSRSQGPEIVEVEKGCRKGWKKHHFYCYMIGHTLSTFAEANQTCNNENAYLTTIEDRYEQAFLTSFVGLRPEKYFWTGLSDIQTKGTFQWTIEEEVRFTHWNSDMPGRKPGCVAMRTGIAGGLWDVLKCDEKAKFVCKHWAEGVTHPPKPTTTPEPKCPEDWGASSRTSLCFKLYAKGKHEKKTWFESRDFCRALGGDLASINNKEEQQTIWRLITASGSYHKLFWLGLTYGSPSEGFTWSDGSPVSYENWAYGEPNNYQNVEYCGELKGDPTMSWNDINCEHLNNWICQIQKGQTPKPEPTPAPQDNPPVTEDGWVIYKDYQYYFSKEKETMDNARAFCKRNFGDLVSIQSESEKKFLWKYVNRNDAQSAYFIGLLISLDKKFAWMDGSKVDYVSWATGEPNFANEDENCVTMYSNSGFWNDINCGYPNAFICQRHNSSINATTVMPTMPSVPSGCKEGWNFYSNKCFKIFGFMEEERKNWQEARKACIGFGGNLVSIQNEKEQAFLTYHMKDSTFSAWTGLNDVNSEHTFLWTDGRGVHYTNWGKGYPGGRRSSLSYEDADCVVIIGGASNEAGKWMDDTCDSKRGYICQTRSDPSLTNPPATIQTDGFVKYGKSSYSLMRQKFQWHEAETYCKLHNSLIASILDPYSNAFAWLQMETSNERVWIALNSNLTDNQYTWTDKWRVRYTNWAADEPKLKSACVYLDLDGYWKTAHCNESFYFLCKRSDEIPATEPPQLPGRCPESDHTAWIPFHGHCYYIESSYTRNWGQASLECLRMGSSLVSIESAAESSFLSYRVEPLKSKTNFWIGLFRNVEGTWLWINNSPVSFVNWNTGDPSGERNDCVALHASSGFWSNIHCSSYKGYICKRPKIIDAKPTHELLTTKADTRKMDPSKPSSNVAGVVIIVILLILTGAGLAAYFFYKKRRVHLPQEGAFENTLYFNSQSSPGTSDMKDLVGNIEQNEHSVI
UniProt Q8IX05, sequence (Q8IX05 23-232 limits assumed): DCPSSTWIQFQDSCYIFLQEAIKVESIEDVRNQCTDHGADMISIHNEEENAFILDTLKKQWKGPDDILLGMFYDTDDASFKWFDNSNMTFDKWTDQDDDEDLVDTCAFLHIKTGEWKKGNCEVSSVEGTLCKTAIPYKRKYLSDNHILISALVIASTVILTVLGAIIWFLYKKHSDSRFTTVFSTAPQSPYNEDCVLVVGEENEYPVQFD

microbeads bound per cell [1]: 0.09 beads/cell
microbeads bound per cell [2]: 0.09 beads/cell
microbeads bound per cell [3]: 0.09 beads/cell
Substance: isotype control mAb 401.21 (antibody)

Source: patent publication US20100303819A1
